Measurements taken from paper PMC8904574 (2022).

Experiments:
[1] = molecular target: β-subunit of the F1 part of the Na+-F1FO-ATP synthase of Acetobacterium woodii, N-terminal His6 tag (Acetobacterium woodii (strain ATCC …, UniProt P50002)); assay: LILBID-MS; tested with 2 mM ATP/2 mM MgCl2; δ binds only once the α3β3 hexameric head (α3β3γ/α3β3γε) is preformed
[2] = molecular target: α-subunit of the F1 part of the Na+-F1FO-ATP synthase of Acetobacterium woodii, N-terminal StrepI tag (Acetobacterium woodii (strain ATCC …, UniProt P50000)); assay: as above
Chain of α-subunit of the F1 part of the Na+-F1FO-ATP synthase of Acetobacterium woodii, N-terminal StrepI tag (Acetobacterium woodii (P50000 whole entry): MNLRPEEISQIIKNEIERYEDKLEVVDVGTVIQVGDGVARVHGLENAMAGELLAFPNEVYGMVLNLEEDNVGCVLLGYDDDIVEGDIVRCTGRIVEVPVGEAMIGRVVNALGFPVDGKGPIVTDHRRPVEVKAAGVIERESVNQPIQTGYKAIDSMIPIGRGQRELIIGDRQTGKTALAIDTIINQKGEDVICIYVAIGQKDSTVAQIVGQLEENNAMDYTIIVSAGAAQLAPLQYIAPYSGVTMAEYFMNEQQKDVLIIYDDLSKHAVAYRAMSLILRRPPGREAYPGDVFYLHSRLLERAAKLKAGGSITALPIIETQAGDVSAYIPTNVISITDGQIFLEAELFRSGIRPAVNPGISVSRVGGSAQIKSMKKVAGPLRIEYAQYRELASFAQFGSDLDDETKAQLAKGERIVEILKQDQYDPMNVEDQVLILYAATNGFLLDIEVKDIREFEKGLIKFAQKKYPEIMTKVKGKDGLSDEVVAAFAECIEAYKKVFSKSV

Chain of β-subunit of the F1 part of the Na+-F1FO-ATP synthase of Acetobacterium woodii, N-terminal His6 tag (Acetobacterium woodii (P50002 whole entry): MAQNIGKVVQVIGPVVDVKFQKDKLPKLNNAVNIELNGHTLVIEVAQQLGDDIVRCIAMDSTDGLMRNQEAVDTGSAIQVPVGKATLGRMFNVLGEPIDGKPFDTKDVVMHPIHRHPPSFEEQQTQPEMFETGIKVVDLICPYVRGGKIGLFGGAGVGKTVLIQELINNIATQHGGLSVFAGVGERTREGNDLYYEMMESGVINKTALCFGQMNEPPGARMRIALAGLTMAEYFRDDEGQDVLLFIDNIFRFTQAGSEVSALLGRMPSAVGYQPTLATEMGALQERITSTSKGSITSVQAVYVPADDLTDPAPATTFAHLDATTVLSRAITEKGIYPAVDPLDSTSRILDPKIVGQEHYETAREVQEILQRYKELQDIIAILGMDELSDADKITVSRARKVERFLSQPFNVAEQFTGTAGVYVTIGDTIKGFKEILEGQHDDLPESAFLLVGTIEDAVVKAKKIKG

binding result [1]: no binding | binding result [2]: no binding
B1: δ-subunit of the F1 part of the Na+-F1FO-ATP synthase of Acetobacterium woodii, C-terminal His6 tag (protein)
chain: MSLVASKYARALFDVAVDKDQLDEIFSDFKTATDLFSSEKKFMDLMLTPSLNTGEKKGILMRSLESLSNQYVKNYLMILMDKNRFEDIFDIYEAFRKLCNEHKNLVEARVLTVIPLDETLRIALEENLAKRFNKKVILENEIDKSILGGAVVYVGDQIIDGSIKNQLSQMKKQVNNLRLH
